Drawing on paper PMC5616090, this text covers dH (unfolding and dissociation of the tetramer, per mol of monomer) and stoichiometry N for two substances.

Data set [1] concerns Q99816. Nature of the data set: differential scanning calorimetry. The conditions noted are these: other: differential scanning calorimetry.
Data set [2] concerns Q99816. Nature of the data set: circular dichroism thermal unfolding. Conditions: other: circular dichroism thermal unfolding.
Data set [3] has as its target Tumor susceptibility gene-101 coiled coil domain (TSG101cc), residues 229-304 (human) (UniProt Q99816). Nature of the data set: differential scanning calorimetry.
Data set [4] has the same target. Nature of the data set: circular dichroism thermal unfolding.

Tumor susceptibility gene-101 coiled coil domain (TSG101cc), residues 229-304, sequence (Q99816 2-390): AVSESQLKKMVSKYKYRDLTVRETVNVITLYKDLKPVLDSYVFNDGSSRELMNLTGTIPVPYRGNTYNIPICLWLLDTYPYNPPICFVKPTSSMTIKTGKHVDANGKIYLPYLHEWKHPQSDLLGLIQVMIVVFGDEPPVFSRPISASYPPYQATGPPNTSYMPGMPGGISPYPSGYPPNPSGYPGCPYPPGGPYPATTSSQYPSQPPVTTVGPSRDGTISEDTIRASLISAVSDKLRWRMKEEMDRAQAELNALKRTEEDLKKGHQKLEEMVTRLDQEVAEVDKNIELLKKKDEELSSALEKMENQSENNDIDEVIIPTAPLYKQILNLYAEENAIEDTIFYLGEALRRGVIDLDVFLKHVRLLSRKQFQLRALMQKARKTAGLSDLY

In the case of “Tumor susceptibility gene-101 coiled coil domain (TSG101cc), residues 229-304”, the dH (unfolding and dissociation of the tetramer, per mol of monomer) is 45.6 kcal/mol in the data set on Q99816 [1] and 56.5 kcal/mol in the data set with Q99816 [2].
For the substance “Tumor susceptibility gene-101 coiled coil domain (TSG101cc), residues 229-304 (from UniProt Q99816 229-304) (domain or fragment)”, the stoichiometry N in data set [3] and in data set [4] was 4 in each case.
